One data set concerns the target T1, CIRV p19-WT (Carnation Italian ringspot virus, UniProt Q66104 1-172).
T1 sequence: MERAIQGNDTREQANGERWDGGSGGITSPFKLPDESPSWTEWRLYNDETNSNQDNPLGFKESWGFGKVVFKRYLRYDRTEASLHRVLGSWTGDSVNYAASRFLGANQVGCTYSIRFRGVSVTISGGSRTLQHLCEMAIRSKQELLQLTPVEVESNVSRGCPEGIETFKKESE
Briefly: X-ray crystallography; 2.2 A; Protein in 20 mM Tris pH 7.4, 150 mM NaCl, 1 mM TCEP before crystallization; crystallization conditions not in the material. Particulars: protein: recombinant; tags: N-terminal His6 removed with TEV protease; chain copies: 2; 19 bp, 3' overhang 2 nt on both strands.

Data set [1] deals with the molecule itself. Put plainly: crystal structure; p19 homodimer in complex with GL2 siRNA duplex; hanging drop vapour diffusion at 4 °C, 3-12% PEG 1500, 100 mM sodium acetate pH 4.6, 10-40 mM MgCl2; space group P1.

B1: GL2 siRNA duplex (dsRNA)
RNA 1: CGUACGCGGAAUACUUCGAUU
RNA 2: UCGAAGUAUUCCGCGUACGUU
modifications: 5' phosphorylated strands; text says deoxythymidine 2-nt overhangs, but printed as UU
As for B1, in the data set with CIRV p19-WT, the binding result is reported as “binds”.

B2: wild-type p19 protein from the Carnation Italian ringspot virus (natural protein)
chain: MERAIQGNDTREQANGERWDGGSGGITSPFKLPDESPSWTEWRLYNDETNSNQDNPLGFKESWGFGKVVFKRYLRYDRTEASLHRVLGSWTGDSVNYAASRFLGANQVGCTYSIRFRGVSVTISGGSRTLQHLCEMAIRSKQELLQLTPVEVESNVSRGCPEGIETFKKESE
notes: p19 viral suppressor of RNA silencing, Carnation Italian ringspot virus (CIRV), full-length construct, codon-optimized for E. coli, in pHis-parallel 2; Crystallised in complex with GL2 siRNA duplex; also called p19-WT; CIRV p19; source: E. coli BL21 DE3, purified (Nickel resin, TEV cleavage, size-exclusion chromatography); not shown: His6, N-terminal, cleaved
On to B2, for which, in data set [1], the binding result is listed as “binds”.

B3: p19-T111H mutant of the Carnation Italian ringspot virus p19 protein (natural protein, UniProt Q66104 1-172, looked up)
chain: MERAIQGNDTREQANGERWDGGSGGITSPFKLPDESPSWTEWRLYNDETNSNQDNPLGFKESWGFGKVVFKRYLRYDRTEASLHRVLGSWTGDSVNYAASRFLGANQVGCHYSIRFRGVSVTISGGSRTLQHLCEMAIRSKQELLQLTPVEVESNVSRGCPEGIETFKKESE
notes: Crystallised in complex with GL2 siRNA duplex; also called H111; source: E. coli BL21 DE3, purified (Nickel resin, TEV cleavage, size-exclusion chromatography); not shown: His6, N-terminal, cleaved
For the molecule B3, the binding result in data set [1] is given as “binds”.

B4: p19-T111S mutant of the Carnation Italian ringspot virus p19 protein (natural protein, UniProt Q66104 1-172, looked up)
chain: MERAIQGNDTREQANGERWDGGSGGITSPFKLPDESPSWTEWRLYNDETNSNQDNPLGFKESWGFGKVVFKRYLRYDRTEASLHRVLGSWTGDSVNYAASRFLGANQVGCSYSIRFRGVSVTISGGSRTLQHLCEMAIRSKQELLQLTPVEVESNVSRGCPEGIETFKKESE
notes: Crystallised in complex with GL2 siRNA duplex; also called S111; source: E. coli BL21 DE3, purified (Nickel resin, TEV cleavage, size-exclusion chromatography); not shown: His6, N-terminal, cleaved
On to B4, for which the binding result in data set [1] is given as “binds”.

For the origin of these results see publication PMC6551489, “Structural insights into interactions between viral suppressor of RNA silencing protein p19 mutants and small RNAs” (FEBS Open Bio, 2019).
